# Assay results published in patent US11312781B2, “Antigen binding molecules that bind LIGHT” (Capella Bioscience Ltd., priority 2018, dated 2022).
# What was measured:
# LIGHT protein = target: T1, LIGHT protein (Homo sapiens, UniProt O43557, K214E); test: Hydrogen-deuterium exchange (HDX) mass spectrometry epitope mapping; format: binding; design: Difference uptake (3B04-control) / Uptake 3B04: unit not given here; settings: for Uptake 3B04: average deuterium uptake n = 3
# T1 construct: amino acids 74-240 LIGHT (R&D Systems, 664-LI-025); purchased R&D Systems 664-LI-025
# T1 sequence (O43557 74-240 K214E): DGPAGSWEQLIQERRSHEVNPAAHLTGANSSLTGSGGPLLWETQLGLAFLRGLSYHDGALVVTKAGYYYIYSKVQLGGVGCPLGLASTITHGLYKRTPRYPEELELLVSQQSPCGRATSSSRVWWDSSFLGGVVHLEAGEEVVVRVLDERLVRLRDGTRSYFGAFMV
# Description: The LIGHT protein (R&D Systems 664-LI-025) was solubilised in PBS buffer at a final concentration of 8 μM, whereas the antibodies were maintained at 20 μM in PBS. For complex formation the LIGHT protein was incubated with each antibody separately in 1:5 ratio on ice and HDX measurements were performed 30 min after incubation. All data were recorded on a waters Synapt G2Si equipped with a HDX platform. […] […] Subsequently each sample was quenched with 50 μL of 2M guanidinium chloride in at pH 2. The samples were passed through a pepsin column for 5 min to digest the protein and peptides were separated using a reverse phase chromatography. Data were analysed with DynamX software. Peptides were selected with a maximum length of 15 amino acids and a 5 ppm mass accuracy error. […] The analysis was repeated 3 times for each mAb.
# HDX was used as a starting point to identify the epitope of antibody 3B04 binding to the LIGHT protein. A sequence coverage of 69.2% of the LIGHT protein was achieved and the regions that were not observed were due to the presence of a […] and glycosylation. The glycans were not removed from LIGHT in order to preserve the structure of the protein in a native state. […] (Difference in uptake between 3B04 and control mAb, Table 16, values in bold). […] The results from HDX spectrometry were used as a guide to identify a region of interest that was subsequently analysed using alanine scanning.
# native trimeric LIGHT = target: T2, native trimeric LIGHT (Homo sapiens, UniProt O43557, K214E); test: Binding ratio of mAbs bound to LIGHT by native mass spectrometry; settings: LIGHT incubated 1:5 molar ratio (protein:antibody)
# T2 construct: amino acids 74-240 LIGHT (R&D Systems, 664-LI-025); purchased R&D Systems 664-LI-025
# T2 sequence (O43557 74-240 K214E): as above
# Description: The LIGHT protein (R&D Systems 664-LI-025) was solubilised in PBS buffer at a final concentration of 4 μM, whereas the mAbs were maintained at 20 μM in PBS. The samples were buffer exchanged into ammonium acetate pH 7.4 at different concentrations via a column with a cut-off of 40 kDa prior to mass spectrometry optimisation. […] Samples were stored at 4° C. and were used within one week. The antibodies were diluted to 1 μM prior to MSanalysis. For complex formation the LIGHT protein was incubated with each antibody separately in 1:5 ratio on ice and native mass measurements were performed 30 min after incubation.
# Nano electrospray ionization measurements were performed using a Q Exactive hybrid quadrupole-Orbitrap mass spectrometer (Thermo Fisher Scientific) modified for the transmission and detection of high m/z ions. […] Elevated pressure was applied in the front optics and mass spectra were recorded at optimized collision energy. […] Data were analysed with Xcaliber software and deconvoluted manually.
# Native mass spectroscopy was utilised to determine the ratio of mAb bound to native trimeric LIGHT. The measured mass of 3B04 (IgG4) was 147256±0.7 Da and the F19 anti-LIGHT mAb, (IgG4 mAb from EP2292663) was 147364±6.6 Da. […] Two major populations of the light protein were recorded with measured masses of 68 kDa and 71 kDa. […]
# [1] = LIGHT peptide 194-202 SRVWWDSSF, Exposure (sec) 0.33
# [2] = LIGHT peptide 194-202 SRVWWDSSF, Exposure (sec) 1.00
# [3] = LIGHT peptide 194-202 SRVWWDSSF, Exposure (sec) 5.00
# [4] = LIGHT peptide 194-202 SRVWWDSSF, Exposure (sec) 30.00
# [5] = LIGHT peptide 195-202 RVWWDSSF, Exposure (sec) 0.33
# [6] = LIGHT peptide 195-202 RVWWDSSF, Exposure (sec) 1.00
# [7] = LIGHT peptide 195-202 RVWWDSSF, Exposure (sec) 5.00
# [8] = LIGHT peptide 195-202 RVWWDSSF, Exposure (sec) 30.00
# [9] = LIGHT peptide 197-202 WWDSSF, Exposure (sec) 0.33
# [10] = LIGHT peptide 197-202 WWDSSF, Exposure (sec) 1.00
# [11] = LIGHT peptide 197-202 WWDSSF, Exposure (sec) 5.00
# [12] = LIGHT peptide 197-202 WWDSSF, Exposure (sec) 30.00
# [13] = LIGHT peptide 203-209 LGGVVHL, Exposure (sec) 0.33
# [14] = LIGHT peptide 203-209 LGGVVHL, Exposure (sec) 1.00
# [15] = LIGHT peptide 203-209 LGGVVHL, Exposure (sec) 5.00
# [16] = LIGHT peptide 203-209 LGGVVHL, Exposure (sec) 30.00
# [17] = LIGHT peptide 203-214 LGGVVHLEAGEE, Exposure (sec) 0.33
# [18] = LIGHT peptide 203-214 LGGVVHLEAGEE, Exposure (sec) 1.00
# [19] = LIGHT peptide 203-214 LGGVVHLEAGEE, Exposure (sec) 5.00
# [20] = LIGHT peptide 203-214 LGGVVHLEAGEE, Exposure (sec) 30.00
molecule,measurement,setting,value
"3B04: parental mouse anti-membrane LIGHT antibody, VL SEQ ID NO 1, VH SEQ ID NO 5; tested as chimeric human IgG4 mAb (antibody, listed as Homo sapiens, V domains shown) VH: QVQLQQPGAELVRPGASVTLSCKASGYTFTDYEMHWVKQTPVHGLEWIGEIDPETGDTAYSQKFKGKATLTADKSSSTAYMEFRSLTSEDSAVYYCSRETDYFFDYWGQGTTLTVSS VL: DIQMTQTPASLSASVGETVTITCGASENIYGALNWYQRKQGKSPQLLIYGATNLADGMSSRFSGSGSGRQYSLKISSLHPDDFATYYCQNVLTTPWTFGGGTKLEIKR",Difference uptake (3B04-control),LIGHT protein; [1],−0.296
same,Uptake 3B04,LIGHT protein; [1],0.744
same,Difference uptake (3B04-control),LIGHT protein; [2],−0.443
same,Uptake 3B04,LIGHT protein; [2],0.885
same,Difference uptake (3B04-control),LIGHT protein; [3],−0.405
same,Uptake 3B04,LIGHT protein; [3],1.159
same,Difference uptake (3B04-control),LIGHT protein; [4],−0.656
same,Uptake 3B04,LIGHT protein; [4],1.392
same,Difference uptake (3B04-control),LIGHT protein; [5],−0.254
same,Uptake 3B04,LIGHT protein; [5],0.393
same,Difference uptake (3B04-control),LIGHT protein; [6],−0.399
same,Uptake 3B04,LIGHT protein; [6],0.480
same,Difference uptake (3B04-control),LIGHT protein; [7],−0.474
same,Uptake 3B04,LIGHT protein; [7],0.631
same,Difference uptake (3B04-control),LIGHT protein; [8],−0.756
same,Uptake 3B04,LIGHT protein; [8],0.805
same,Difference uptake (3B04-control),LIGHT protein; [9],−0.187
same,Uptake 3B04,LIGHT protein; [9],0.240
same,Difference uptake (3B04-control),LIGHT protein; [10],−0.269
same,Uptake 3B04,LIGHT protein; [10],0.336
same,Difference uptake (3B04-control),LIGHT protein; [11],−0.217
same,Uptake 3B04,LIGHT protein; [11],0.501
same,Difference uptake (3B04-control),LIGHT protein; [12],−0.252
same,Uptake 3B04,LIGHT protein; [12],0.603
same,Difference uptake (3B04-control),LIGHT protein; [13],−0.029
same,Uptake 3B04,LIGHT protein; [13],0.145
same,Difference uptake (3B04-control),LIGHT protein; [14],−0.027
same,Uptake 3B04,LIGHT protein; [14],0.147
same,Difference uptake (3B04-control),LIGHT protein; [15],−0.014
same,Uptake 3B04,LIGHT protein; [15],0.237
same,Difference uptake (3B04-control),LIGHT protein; [16],−0.052
same,Uptake 3B04,LIGHT protein; [16],0.384
same,Difference uptake (3B04-control),LIGHT protein; [17],−0.050
same,Uptake 3B04,LIGHT protein; [17],0.202
same,Difference uptake (3B04-control),LIGHT protein; [18],−0.033
same,Uptake 3B04,LIGHT protein; [18],0.266
same,Difference uptake (3B04-control),LIGHT protein; [19],−0.087
same,Uptake 3B04,LIGHT protein; [19],0.399
same,Difference uptake (3B04-control),LIGHT protein; [20],−0.081
same,Uptake 3B04,LIGHT protein; [20],0.807
same,Epitope defined by HDX,LIGHT protein; soluble LIGHT,residues 195-197 of soluble LIGHT
same,Stoichiometry of mAb bound to native trimeric LIGHT (antibody:LIGHT trimer),native trimeric LIGHT,one antibody per one LIGHT protein
